The record followed here is patent US20230285581A1.

Where a chain is given by its changes, count along the chain named. Names and notes keep the numbering of the source.

In experiment [1] the target is human MSR1 extracellular domain expressed with a N-terminal nonahistidine tag (His9-hMSR1; R&D Systems, Cat #2708-MS) (human) (UniProt P21757). Description: competition ELISA; 300 nM antibody, competitor biot-AGE-BSA, plate-coated His9-hMSR1. For orientation: An ELISA detects its analyte on a solid surface through an enzyme-linked reagent.
Experiment [2] has as its target endogenously expressed human MSR1 on PMA-treated THP-1 cells (human) (UniProt P21757). Kind of experiment: ECL cell binding, PMA-treated THP-1 cells.
Experiment [3] has as its target human MSR1 extracellular domain expressed with a N-terminal nonahistidine tag (His9-hMSR1; R&D Systems, Cat #2708-MS) (human) (UniProt P21757). Kind of experiment: competition ELISA; 100 nM antibody, competitor Ac-LDL, plate-coated His9-hMSR1.
Experiment [4] addresses full length monkey MSR1 on HEK293.mfMSR1 cells (Macaca fascicularis). Description: ECL cell binding, HEK293.mfMSR1 cells.
In experiment [5] the target is human MSR1 extracellular domain expressed with a N-terminal nonahistidine tag (His9-hMSR1; R&D Systems, Cat #2708-MS) (human) (UniProt P21757). Kind of experiment: competition ELISA; 500 nM antibody, competitor 10 nM Ox-LDL, plate-coated His9-hMSR1.
In experiment [6] the target is mouse MSR1 on RAW264.7 cells (mouse) (UniProt P30204). Description: flow cytometry, RAW264.7 cells, 10 ug/mL. A general note: Flow cytometry measures light scatter and fluorescence of single cells or particles in a stream.
Experiment [7] concerns the target full length human MSR1 with a C-terminal Myc tag on HEK293.Myc.hMSR1 cells (human) (UniProt P21757). Description: ECL cell binding, HEK293.Myc.hMSR1 cells.

Chain of full length monkey MSR1 on HEK293.mfMSR1 cells (Macaca fascicularis) (chain, as listed by the source): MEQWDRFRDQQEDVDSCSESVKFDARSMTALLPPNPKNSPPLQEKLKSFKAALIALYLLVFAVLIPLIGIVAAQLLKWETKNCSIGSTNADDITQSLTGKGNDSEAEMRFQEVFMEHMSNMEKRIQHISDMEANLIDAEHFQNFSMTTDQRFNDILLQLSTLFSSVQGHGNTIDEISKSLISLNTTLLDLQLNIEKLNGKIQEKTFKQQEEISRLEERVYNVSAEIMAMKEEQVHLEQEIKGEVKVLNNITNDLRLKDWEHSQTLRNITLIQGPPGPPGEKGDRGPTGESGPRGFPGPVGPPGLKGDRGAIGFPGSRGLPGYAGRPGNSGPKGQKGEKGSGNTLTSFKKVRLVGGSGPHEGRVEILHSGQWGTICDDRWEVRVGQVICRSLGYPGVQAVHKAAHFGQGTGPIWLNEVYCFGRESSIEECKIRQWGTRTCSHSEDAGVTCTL
Chain of endogenously expressed human MSR1 on PMA-treated THP-1 cells (human) (P21757 whole entry, the tested form may be a part): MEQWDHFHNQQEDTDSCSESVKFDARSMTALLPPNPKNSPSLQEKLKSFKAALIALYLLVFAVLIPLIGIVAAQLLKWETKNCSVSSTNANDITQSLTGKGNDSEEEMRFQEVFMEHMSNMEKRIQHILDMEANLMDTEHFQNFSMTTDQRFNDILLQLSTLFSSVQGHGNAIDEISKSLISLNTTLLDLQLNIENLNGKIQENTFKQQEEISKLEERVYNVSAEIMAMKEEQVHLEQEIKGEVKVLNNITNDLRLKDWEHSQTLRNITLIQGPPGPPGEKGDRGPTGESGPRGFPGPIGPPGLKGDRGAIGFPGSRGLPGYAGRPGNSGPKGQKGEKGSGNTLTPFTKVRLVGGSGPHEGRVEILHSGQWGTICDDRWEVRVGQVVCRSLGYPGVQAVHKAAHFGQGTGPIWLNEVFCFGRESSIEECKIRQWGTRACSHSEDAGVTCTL
Chain of full length human MSR1 with a C-terminal Myc tag on HEK293.Myc.hMSR1 cells (human) (P21757 whole entry): as the sequence (P21757 whole entry, the tested form may be a part) above
Chain of human MSR1 extracellular domain expressed with a N-terminal nonahistidine tag (His9-hMSR1; R&D Systems, Cat #2708-MS) (human) (P21757 other isoform, or with tags, fused parts or gaps): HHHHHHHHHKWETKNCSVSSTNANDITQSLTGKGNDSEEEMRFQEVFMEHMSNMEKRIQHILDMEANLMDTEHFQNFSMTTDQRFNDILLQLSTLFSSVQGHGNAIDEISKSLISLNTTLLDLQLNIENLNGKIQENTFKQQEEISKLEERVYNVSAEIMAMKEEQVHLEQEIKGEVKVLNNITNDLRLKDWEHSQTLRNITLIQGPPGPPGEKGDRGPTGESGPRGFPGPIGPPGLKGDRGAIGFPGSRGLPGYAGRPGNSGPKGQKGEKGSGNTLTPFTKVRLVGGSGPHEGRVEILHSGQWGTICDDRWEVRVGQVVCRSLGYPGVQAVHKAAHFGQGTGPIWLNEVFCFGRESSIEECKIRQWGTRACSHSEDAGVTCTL
Chain of mouse MSR1 on RAW264.7 cells (mouse) (P30204 whole entry): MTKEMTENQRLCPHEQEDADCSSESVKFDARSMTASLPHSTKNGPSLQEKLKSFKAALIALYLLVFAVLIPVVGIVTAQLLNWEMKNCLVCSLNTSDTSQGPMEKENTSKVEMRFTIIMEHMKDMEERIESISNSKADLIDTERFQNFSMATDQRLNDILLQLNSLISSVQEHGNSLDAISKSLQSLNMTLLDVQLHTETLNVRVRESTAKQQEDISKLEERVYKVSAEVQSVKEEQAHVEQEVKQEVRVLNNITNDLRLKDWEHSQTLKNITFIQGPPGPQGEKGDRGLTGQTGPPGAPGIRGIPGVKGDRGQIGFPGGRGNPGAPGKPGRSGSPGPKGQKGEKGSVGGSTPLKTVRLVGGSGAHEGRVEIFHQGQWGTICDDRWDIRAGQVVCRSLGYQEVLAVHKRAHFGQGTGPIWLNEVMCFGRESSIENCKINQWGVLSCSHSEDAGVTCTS

B1: H1H21227N-N297Q (antibody, human IgG1, V domains shown)
VH: QVQLVQSGAEVKKPGASVKVSCKVSGYTLTELSIHWVRQVPGKGLEWMGGFDPEEGETIFAQEFRDRVTLTEDTSPDTAYMELSSLKSEDAAVYYCTTPRYCNNGICYDYWGQGTLVTVSS
VL: DIQMTQSPSSLSASVGDRVTITCRASQSISNYLNWYQQKPGKAPKLLIYTASSLQSGVPSRFSGSGSGTDFTLTISSLQTEDFATYYCQQSYSNFPITFGQGTRLEIKR
For the molecule B1, the % Blocking turned out to be 96% in experiment [1], 105% in experiment [3] and 97% in experiment [5]. Moreover, the values for the ratio of 11 nM antibody binding signal (RLU) to isotype control in experiment [2], in experiment [4] and in experiment [7] were 5, 23 and 37, respectively. Also, the MFI in experiment [6] worked out at 12800. The same molecule gave a S/N in experiment [6] of 5.

B2: H1H21231N (antibody, human IgG1, V domains shown)
VH: EVQLVESGGGLVQPGGSLRLSCAASGFTFSDHYMDWVRQAPGKGLEWVGRTRNKANSHTTEYTASVTGRFTISRDDSRNSLYLQMNSLKTEDTAVYYCVRAGIIGTLFDYWGQGTLVTVSS
VL: B1 VL with S7F, N31S, Y32F, Y36F, L46F, T50A, T80P, N94S, F95P
For B2, the % Blocking in experiment [1] was -44%; in experiment [3] it was -62%; in experiment [5] it was 22%. The ratio of 11 nM antibody binding signal (RLU) to isotype control in experiment [2] came out at 42; in experiment [4] it was 75; in experiment [7], 61.

B3: H1H21227N (antibody, human IgG1, V domains shown)
VH: B1 VH
VL: B1 VL
For B3, the values for the % Blocking in experiment [1], in experiment [3] and in experiment [5] were 99%, 105% and 100%, respectively. For the same molecule, the ratio of 11 nM antibody binding signal (RLU) to isotype control in experiment [2] was 7; in experiment [4], 26; in experiment [7], 37.

B4: H1H21227N-N297D (antibody, human IgG1, V domains shown)
VH: B1 VH
VL: B1 VL
Take B4: the % Blocking in experiment [1] was 97%; in experiment [3], 101%; in experiment [5], 99%. The ratio of 11 nM antibody binding signal (RLU) to isotype control in experiment [2] is 6; in experiment [4] it was 25; in experiment [7], 34.

B5: H1H21234N (antibody, human IgG1, V domains shown)
VH: QVQLQESGPGLVKPSETLSLTCTVTGGSISRNYWSWIRQPPGKGLEWIGYIYYSGSIDYNPSLKSRVTISVDTSKNQFSLKLSSMTAADTAVYYCARDRWNWKYGMDVWGQGTTVIVSS
VL: EIVLTQSPGTLSLSPGERATLSCRASQTVRNNYLAWYHQKPGQAPRLLIYGASSRATGIPDRFSGSGSGTDFTLTISRLEPEDFTVYYCHQYGNSPWTFGQGTKMEIKR
On to B5, for which the % Blocking was 21% in experiment [1], 70% in experiment [3] and 98% in experiment [5]. Moreover, the ratio of 11 nM antibody binding signal (RLU) to isotype control in experiment [2] is 18; in experiment [4] it was 31; in experiment [7] it was 32.

B6: H2aM25695N (antibody, mouse IgG2a, V domains shown)
VH: B5 VH with D58N, T73M, S83N, M85V
VL: B5 VL with N32S, T85A, H90Q, N94S, P96Y
For the molecule B6, the % Blocking in experiment [1] stood at 16%; in experiment [3], 65%; in experiment [5] it was 96%. The ratio of 11 nM antibody binding signal (RLU) to isotype control in experiment [2] came to 8; in experiment [4] it was 45; in experiment [7], 35.
